Consider 1 substance from patent US20140161790A1.

By Kd is commonly meant the free concentration of one partner at which half of the binding sites on the other are occupied at equilibrium, for simple one-to-one binding.

Assay [1] addresses human FcRn (heterodimer of alpha chain and beta2-microglobulin) (human) (UniProt P55899). Briefly: Biacore (SPR), column 'hFcRn Affinity (uM)'; antibody captured on anti-hFab CM5 chip, hFcRn as analyte, PBS pH 6.0, 1:1 Langmuir fit. In general terms: Surface plasmon resonance follows binding to a sensor surface in real time, without labels.
Assay [2] addresses recombinant human TNF (human) (UniProt P01375). Briefly: Biacore (SPR), column 'hTNF Affinity (pM)'; antibody amine-coupled to a CM4 chip, recombinant human TNF as analyte at 6.25-200 nM in HBS-EP pH 7.4, 1:1 Langmuir fit.

Chain of human FcRn (heterodimer of alpha chain and beta2-microglobulin) (human) (P55899 24-297 limits assumed, chain 1 of 2): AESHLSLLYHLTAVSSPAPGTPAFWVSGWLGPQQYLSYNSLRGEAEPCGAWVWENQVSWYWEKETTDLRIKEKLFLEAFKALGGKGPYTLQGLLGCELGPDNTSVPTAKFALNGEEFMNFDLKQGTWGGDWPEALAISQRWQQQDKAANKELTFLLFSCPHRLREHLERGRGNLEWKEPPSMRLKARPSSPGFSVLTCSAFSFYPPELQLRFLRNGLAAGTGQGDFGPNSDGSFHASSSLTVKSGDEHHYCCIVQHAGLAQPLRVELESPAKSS
Chain of human FcRn (heterodimer of alpha chain and beta2-microglobulin) (human) (P61769 21-119 limits assumed, chain 2 of 2, further chain): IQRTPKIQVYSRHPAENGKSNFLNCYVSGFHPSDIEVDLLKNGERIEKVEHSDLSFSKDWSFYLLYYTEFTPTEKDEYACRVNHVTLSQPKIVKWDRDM
Chain of recombinant human TNF (human) (P01375 77-233 limits assumed): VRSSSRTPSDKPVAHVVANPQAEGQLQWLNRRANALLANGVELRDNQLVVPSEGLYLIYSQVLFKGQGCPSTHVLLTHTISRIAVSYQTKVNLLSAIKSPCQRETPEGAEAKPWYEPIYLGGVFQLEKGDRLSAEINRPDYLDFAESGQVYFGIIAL

Consider “Humira (Commercial) adalimumab (antibody)”, for which the Kd in assay [1] stood at 2000 nM; in assay [2] it was 0.00042 nM.
